Measured values published in US20200283521A1 (GRANULAR THERAPEUTICS, published 2020).
Read-outs that look alike come from different tables or passages of the source.

Legend:
Assay in all cases: cell array, transfected fixed HEK293 cells
[1] = biological target: T1, TGM2 (human, UniProt P21980)
T1 construct: expressed in transfected HEK293 cells
T1 sequence (looked up): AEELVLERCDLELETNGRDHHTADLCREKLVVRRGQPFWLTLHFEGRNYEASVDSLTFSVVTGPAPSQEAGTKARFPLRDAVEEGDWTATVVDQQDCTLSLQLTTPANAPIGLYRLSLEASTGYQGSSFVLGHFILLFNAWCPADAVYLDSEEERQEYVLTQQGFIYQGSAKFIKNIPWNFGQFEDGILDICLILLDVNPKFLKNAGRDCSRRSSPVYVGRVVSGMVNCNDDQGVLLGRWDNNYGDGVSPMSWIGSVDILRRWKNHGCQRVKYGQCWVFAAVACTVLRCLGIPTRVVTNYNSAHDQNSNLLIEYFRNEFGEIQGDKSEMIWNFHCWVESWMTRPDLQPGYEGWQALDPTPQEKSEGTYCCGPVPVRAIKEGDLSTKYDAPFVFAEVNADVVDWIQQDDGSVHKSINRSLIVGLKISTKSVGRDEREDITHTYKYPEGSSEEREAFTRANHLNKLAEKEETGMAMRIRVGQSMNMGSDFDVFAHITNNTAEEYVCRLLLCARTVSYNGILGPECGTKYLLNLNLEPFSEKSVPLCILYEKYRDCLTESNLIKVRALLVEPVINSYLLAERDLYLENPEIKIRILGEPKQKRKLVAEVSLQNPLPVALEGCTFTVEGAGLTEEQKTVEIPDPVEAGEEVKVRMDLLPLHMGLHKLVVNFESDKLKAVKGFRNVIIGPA
Method: (§1) Transfection of all plasmids was confirmed by screening for the co-encoded marker ZS green (FIG. 13A).
(§2) Primary hits (duplicate spots) were identified by analysing fluorescence (AF647 and ZsGreenl) on ImageQuant. Vectors encoding all hits were sequenced to confirm their correct identities. […] Slides were analysed as above.

[2] = biological target: T2, PPT1 (human, UniProt P50897)
T2 construct: expressed in transfected HEK293 cells
T2 sequence (looked up): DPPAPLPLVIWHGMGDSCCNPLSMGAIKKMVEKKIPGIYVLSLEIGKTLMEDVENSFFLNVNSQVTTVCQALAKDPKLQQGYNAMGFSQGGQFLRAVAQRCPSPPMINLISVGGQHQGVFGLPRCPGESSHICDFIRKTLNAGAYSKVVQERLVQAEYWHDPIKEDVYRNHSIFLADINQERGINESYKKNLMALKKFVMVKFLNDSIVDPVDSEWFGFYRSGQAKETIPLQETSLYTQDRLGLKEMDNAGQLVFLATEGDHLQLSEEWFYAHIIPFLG
Method: as §1, §2

[3] = biological target: T3, DES (human, UniProt P17661)
T3 construct: expressed in transfected HEK293 cells
Method: as §1, §2

[4] = biological target: T4, EDN2 (human, UniProt P20800)
T4 construct: expressed in transfected HEK293 cells
T4 sequence (looked up): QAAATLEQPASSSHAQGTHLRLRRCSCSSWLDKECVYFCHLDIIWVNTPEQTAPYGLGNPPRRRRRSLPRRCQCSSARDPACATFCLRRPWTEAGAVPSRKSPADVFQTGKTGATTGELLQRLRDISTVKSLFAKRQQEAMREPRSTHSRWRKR
Method: as §1, §2

[5] = biological target: T5, COL23A1 (human, UniProt Q86Y22)
T5 construct: expressed in transfected HEK293 cells
Method: as §1, §2

[6] = biological target: T2, PPT1; remark: listed apart in the source
Method: as §1, §2

[7] = biological target: T6, OSM (human, UniProt P13725)
T6 construct: expressed in transfected HEK293 cells
T6 sequence (looked up): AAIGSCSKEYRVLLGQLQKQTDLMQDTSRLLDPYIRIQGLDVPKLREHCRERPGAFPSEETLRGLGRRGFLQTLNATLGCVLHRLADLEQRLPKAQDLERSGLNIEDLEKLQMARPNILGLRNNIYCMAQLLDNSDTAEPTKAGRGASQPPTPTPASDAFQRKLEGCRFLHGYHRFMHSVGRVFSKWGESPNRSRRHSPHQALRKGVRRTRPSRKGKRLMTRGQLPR
Method: as §1, §2

[8] = biological target: T7, MS4A1 (human, UniProt P11836)
T7 construct: expressed in transfected HEK293 cells; also called CD20
T7 sequence (looked up): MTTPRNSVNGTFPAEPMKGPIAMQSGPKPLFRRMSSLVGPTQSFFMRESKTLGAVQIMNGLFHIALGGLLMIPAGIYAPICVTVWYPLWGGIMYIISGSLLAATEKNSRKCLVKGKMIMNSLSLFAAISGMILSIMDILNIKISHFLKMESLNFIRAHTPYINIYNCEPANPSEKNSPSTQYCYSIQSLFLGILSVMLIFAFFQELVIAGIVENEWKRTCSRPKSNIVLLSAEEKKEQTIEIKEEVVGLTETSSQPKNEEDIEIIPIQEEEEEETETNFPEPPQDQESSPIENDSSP
Method: as §1, §2

[9] = biological target: T8, EGFR (human, UniProt P00533)
T8 construct: expressed in transfected HEK293 cells
Method: as §1, §2

[10] = biological target: T9, PSAPL1 (human, UniProt Q6NUJ1)
T9 construct: expressed in transfected HEK293 cells
T9 sequence (looked up): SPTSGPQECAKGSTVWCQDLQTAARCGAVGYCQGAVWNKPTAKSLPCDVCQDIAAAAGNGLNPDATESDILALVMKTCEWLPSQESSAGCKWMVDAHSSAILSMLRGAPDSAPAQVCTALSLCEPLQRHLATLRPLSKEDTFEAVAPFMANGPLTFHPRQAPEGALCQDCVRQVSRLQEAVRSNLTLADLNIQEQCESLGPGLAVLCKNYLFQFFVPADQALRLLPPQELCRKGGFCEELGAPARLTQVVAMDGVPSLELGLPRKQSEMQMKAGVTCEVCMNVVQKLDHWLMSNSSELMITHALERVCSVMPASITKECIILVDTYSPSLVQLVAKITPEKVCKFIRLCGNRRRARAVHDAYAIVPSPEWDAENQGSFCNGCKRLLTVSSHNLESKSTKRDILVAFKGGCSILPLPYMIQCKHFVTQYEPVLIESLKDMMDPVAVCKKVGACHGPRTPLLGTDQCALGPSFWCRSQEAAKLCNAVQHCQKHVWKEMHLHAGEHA
Method: as §1, §2

[11] = biological target: T10, MSN (human, UniProt P26038)
T10 construct: expressed in transfected HEK293 cells
Method: as §1, §2

Measured: binding result

T3 sequence (P17661 2-470 limits assumed): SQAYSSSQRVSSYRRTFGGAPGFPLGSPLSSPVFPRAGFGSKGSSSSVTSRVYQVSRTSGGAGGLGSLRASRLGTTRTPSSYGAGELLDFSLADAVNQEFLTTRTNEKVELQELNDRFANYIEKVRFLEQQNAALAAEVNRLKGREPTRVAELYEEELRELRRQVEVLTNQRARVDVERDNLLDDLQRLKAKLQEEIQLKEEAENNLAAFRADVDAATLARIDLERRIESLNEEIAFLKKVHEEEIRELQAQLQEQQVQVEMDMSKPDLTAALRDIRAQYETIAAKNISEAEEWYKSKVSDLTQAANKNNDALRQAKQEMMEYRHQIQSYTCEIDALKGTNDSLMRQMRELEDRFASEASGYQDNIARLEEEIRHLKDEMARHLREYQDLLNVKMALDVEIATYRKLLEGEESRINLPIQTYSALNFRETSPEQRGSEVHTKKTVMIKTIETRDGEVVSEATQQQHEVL
T5 sequence (Q86Y22 whole entry): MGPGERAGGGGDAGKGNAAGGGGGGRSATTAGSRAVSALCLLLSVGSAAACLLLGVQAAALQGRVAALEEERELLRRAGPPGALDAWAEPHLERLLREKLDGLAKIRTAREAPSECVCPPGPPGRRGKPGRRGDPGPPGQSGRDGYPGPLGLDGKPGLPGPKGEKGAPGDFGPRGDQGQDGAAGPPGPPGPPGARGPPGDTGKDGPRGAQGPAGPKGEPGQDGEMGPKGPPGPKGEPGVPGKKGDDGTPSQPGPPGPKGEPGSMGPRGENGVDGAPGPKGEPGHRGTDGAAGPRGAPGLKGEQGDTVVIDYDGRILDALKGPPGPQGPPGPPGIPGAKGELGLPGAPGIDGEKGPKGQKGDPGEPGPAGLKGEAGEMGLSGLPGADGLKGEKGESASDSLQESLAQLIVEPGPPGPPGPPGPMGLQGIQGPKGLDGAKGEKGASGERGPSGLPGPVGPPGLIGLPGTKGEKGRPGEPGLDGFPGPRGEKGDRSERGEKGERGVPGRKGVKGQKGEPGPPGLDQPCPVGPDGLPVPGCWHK
T10 sequence (P26038 2-577 limits assumed): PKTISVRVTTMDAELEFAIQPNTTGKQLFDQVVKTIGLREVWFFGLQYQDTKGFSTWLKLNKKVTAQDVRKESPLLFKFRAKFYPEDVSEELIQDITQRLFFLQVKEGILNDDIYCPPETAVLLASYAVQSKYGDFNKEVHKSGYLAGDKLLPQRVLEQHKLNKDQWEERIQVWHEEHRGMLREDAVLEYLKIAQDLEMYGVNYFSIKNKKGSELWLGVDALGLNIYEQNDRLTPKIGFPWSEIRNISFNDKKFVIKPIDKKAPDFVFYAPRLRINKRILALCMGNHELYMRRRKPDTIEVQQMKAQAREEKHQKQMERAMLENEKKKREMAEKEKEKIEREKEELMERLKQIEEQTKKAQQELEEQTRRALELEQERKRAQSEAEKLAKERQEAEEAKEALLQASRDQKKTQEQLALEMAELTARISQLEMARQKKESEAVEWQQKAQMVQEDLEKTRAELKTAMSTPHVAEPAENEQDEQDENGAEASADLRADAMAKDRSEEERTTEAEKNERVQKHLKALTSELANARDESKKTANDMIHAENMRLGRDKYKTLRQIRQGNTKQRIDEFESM

B1: MH1, human IgG1 (antibody, V domains shown)
VH: QVQLVQSGAEVKKPGASVKVSCKASGYTFTDYYMNWVRQAPGQGLEWMGRIYPGSGNTYYAQKFQGRVTMTRDTSTSTVYMELSSLRSEDTAVYYCARGVYYYDYWGQGTLVTVSS
VL: DIQMTQSPSSLSASVGDRVTITCRASQGIRTNLAWFQQKPGKAPKSLIYAASSLQSGVPSRFSGSGSGTDFTLTISSLQPEDFATYYCQQYNSYPRTFGGGTKVEIK
notes: IgG1; also called IgG1-MH1
no binding (tested: 2 µg/ml): [1] | [2] | [3] | [4] | [5]

B2: humanized h37M, human IgG1 (antibody, V domains shown)
VH: QVQLVQSGAEVKKPGASVKLSCKASGYTFTDYYINWVRQAPGKGLEWIARIYPGSGNTYYNEKFKGRATLTADKSTSTAYMQLSSLRSEDTAVYFCARGVYYFDYWGQGTTVTVSS
VL: DIVMTQSPSSLSASVGDRVTITCKASQNVRTNVAWYQQKPGKAPKALIYSASYRYSGVPDRFTGSGSGTDFTLTISSLQPEDFADYFCQQYNSYPRTFGGGTKVEIK
notes: human IgG1; terbium-labelled as the tracer of the HTRF assays; also called C-KIT-h37M; h37M-IgG1
no binding (tested: 2 µg/ml): [6] | [7] | [8] | [9] | [10] | [11]
